In publication PMC8679000, “Biochemical Characterizations of Human TMPK Mutations Identified in Patients with Severe Microcephaly: Single Amino Acid Substitutions Impair Dimerization and Abolish Their Catalytic Activity” (ACS Omega, 2021) one finds screen value data, which are given here for three variants.

Sequences and labels used below:
B1: wild-type human deoxythymidylate kinase (TMPK) [human] / itself (parent)
chain: MAARRGALIVLEGVDRAGKSTQSRKLVEALCAAGHRAELLRFPERSTEIGKLLSSYLQKKSDVEDHSVHLLFSANRWEQVPLIKEKLSQGVTLVVDRYAFSGVAFTGAKENFSLDWCKQPDVGLPKPDLVLFLQLQLADAAKRGAFGHERYENGAFQERALRCFHQLMKDTTLNWKMVDASKSIEAVHEDIRVLSEDAIRTATEKPLGELWK

Variants of B1 are the subject of the experiment. The experiment is described as follows: size-exclusion chromatography, protein concentration of fractions. The following applies: with itself, 200 µg enzyme loaded, 0.4 mL fractions. A general note: SEC sorts molecules by how far they enter the pores of the column.
[1] abbreviates: fraction F18 (monomer fraction).
Where [2] appears, read: fraction F19 (monomer fraction).
Where [3] appears, read: fraction F20 (monomer fraction).

For the variant chain 1 P81L, the screen value turned out to be 0.002 mg/mL (fraction F15 (dimer fraction)); 0.009 mg/mL (fraction F16 (dimer fraction)); 0.024 mg/mL under setting [1]; 0.016 mg/mL under setting [2]; 0.013 mg/mL under setting [3].
For chain 1 D128N, in that order: 0.004 mg/mL, 0.005 mg/mL, 0.016 mg/mL, 0.019 mg/mL and 0.012 mg/mL.
For chain 1 A99T, in that order: 0.006 mg/mL, 0.01 mg/mL, 0.019 mg/mL, 0.015 mg/mL and 0.012 mg/mL.
